B1: H183/L072 VL Y32R (antibody, name in Kabat numbering, V domains shown)
VH: QVQLVESGGGLVQPGRSLRLSCAASGFTFSNAWMHWVRQAPGKGLEWVAQIKDKGNAYAAYYAPSVKGRFTISRDDSKNSIYLQMNSLKTEDTAVYYCHYVHYASASTVLPAFGVDAWGQGTTVTVSS
VL: DIVMTQSPLSLPVTPGEPASISCQASQELVHMNRNTRLHWYQQKPGQAPRLLIYKVSNRFPGVPDRFSGSGSGTDFTLKISRVEAEDVGVYYCAQGTSVPFTFGQGTKLEIK
B2: H183/L072 VL V51W (antibody, name in Kabat numbering, V domains shown)
VH: B1 VH
VL: B1 VL with R37Y, V56W
B3: H183/L072 VL A25F (antibody, name in Kabat numbering, V domains shown)
VH: B1 VH
VL: B1 VL with A25F, R37Y
B4: H183/L072 VL L27bR (antibody, name in Kabat numbering, V domains shown)
VH: B1 VH
VL: B1 VL with L29R, R37Y
B5: H183/L072 VL P95W (antibody, name in Kabat numbering, V domains shown)
VH: B1 VH
VL: B1 VL with R37Y, P100W
B6: H183/L072 VL G91W (antibody, name in Kabat numbering, V domains shown)
VH: B1 VH
VL: B1 VL with R37Y, G96W
B7: H183/L072 VL Q90W (antibody, name in Kabat numbering, V domains shown)
VH: B1 VH
VL: B1 VL with R37Y, Q95W
B8: H183/L072 VL V94W (antibody, name in Kabat numbering, V domains shown)
VH: B1 VH
VL: B1 VL with R37Y, V99W
B9: H183/L072 VL F96W (antibody, name in Kabat numbering, V domains shown)
VH: B1 VH
VL: B1 VL with R37Y, F101W
B10: H183/L072 VL H34R (antibody, name in Kabat numbering, V domains shown)
VH: B1 VH
VL: B1 VL with R37Y, H39R
B11: H183/L072 VL L33R (antibody, name in Kabat numbering, V domains shown)
VH: B1 VH
VL: B1 VL with R37Y, L38R
B12: H183/L072 VL T97W (antibody, name in Kabat numbering, V domains shown)
VH: B1 VH
VL: B1 VL with R37Y, T102W
B13: H183/L072 VL T92W (antibody, name in Kabat numbering, V domains shown)
VH: B1 VH
VL: B1 VL with R37Y, T97W
B14: H183/L072 VL T31G (antibody, name in Kabat numbering, V domains shown)
VH: B1 VH
VL: B1 VL with T36G, R37Y
B15: H183/L072 VL H34G (antibody, name in Kabat numbering, V domains shown)
VH: B1 VH
VL: B1 VL with R37Y, H39G
B16: H183/L072 VL Y32K (antibody, name in Kabat numbering, V domains shown)
VH: B1 VH
VL: B1 VL with R37K
B17: H183/L072 VL H34D (antibody, name in Kabat numbering, V domains shown)
VH: B1 VH
VL: B1 VL with R37Y, H39D
B18: H183/L072 VL H34T (antibody, name in Kabat numbering, V domains shown)
VH: B1 VH
VL: B1 VL with R37Y, H39T
B19: H183/L072 VL T31H (antibody, name in Kabat numbering, V domains shown)
VH: B1 VH
VL: B1 VL with T36H, R37Y
B20: H183/L072 VL L27bN (antibody, name in Kabat numbering, V domains shown)
VH: B1 VH
VL: B1 VL with L29N, R37Y
B21: H183/L072 VL H34E (antibody, name in Kabat numbering, V domains shown)
VH: B1 VH
VL: B1 VL with R37Y, H39E
B22: H183/L072 VL L33K (antibody, name in Kabat numbering, V domains shown)
VH: B1 VH
VL: B1 VL with R37Y, L38K
B23: H183/L072 VL A25H (antibody, name in Kabat numbering, V domains shown)
VH: B1 VH
VL: B1 VL with A25H, R37Y
B24: H183/L072 VL A25R (antibody, name in Kabat numbering, V domains shown)
VH: B1 VH
VL: B1 VL with A25R, R37Y
B25: H183/L072 VL Q24E (antibody, name in Kabat numbering, V domains shown)
VH: B1 VH
VL: B1 VL with Q24E, R37Y
B26: H183/L072 VL A25D (antibody, name in Kabat numbering, V domains shown)
VH: B1 VH
VL: B1 VL with A25D, R37Y
B27: H183/L072 VL H34S (antibody, name in Kabat numbering, V domains shown)
VH: B1 VH
VL: B1 VL with R37Y, H39S
B28: H183/L072 VL Y32T (antibody, name in Kabat numbering, V domains shown)
VH: B1 VH
VL: B1 VL with R37T
B29: H183/L072 VL T31N (antibody, name in Kabat numbering, V domains shown)
VH: B1 VH
VL: B1 VL with T36N, R37Y
B30: H183/L072 VL H34A (antibody, name in Kabat numbering, V domains shown)
VH: B1 VH
VL: B1 VL with R37Y, H39A
B31: H183/L072 VL Y32S (antibody, name in Kabat numbering, V domains shown)
VH: B1 VH
VL: B1 VL with R37S
B32: H183/L072 VL H34K (antibody, name in Kabat numbering, V domains shown)
VH: B1 VH
VL: B1 VL with R37Y, H39K
B33: H183/L072 VL L33D (antibody, name in Kabat numbering, V domains shown)
VH: B1 VH
VL: B1 VL with R37Y, L38D
B34: H183/L072 VL Y32D (antibody, name in Kabat numbering, V domains shown)
VH: B1 VH
VL: B1 VL with R37D
B35: H183/L072 VL N28D (antibody, name in Kabat numbering, V domains shown)
VH: B1 VH
VL: B1 VL with N33D, R37Y
B36: H183/L072 VL F55A (antibody, name in Kabat numbering, V domains shown)
VH: B1 VH
VL: B1 VL with R37Y, F60A
B37: H183/L072 VL H34N (antibody, name in Kabat numbering, V domains shown)
VH: B1 VH
VL: B1 VL with R37Y, H39N
B38: H183/L072 VL Y32E (antibody, name in Kabat numbering, V domains shown)
VH: B1 VH
VL: B1 VL with R37E
B39: H183/L072 VL L33S (antibody, name in Kabat numbering, V domains shown)
VH: B1 VH
VL: B1 VL with R37Y, L38S
B40: H183/L072 VL A25E (antibody, name in Kabat numbering, V domains shown)
VH: B1 VH
VL: B1 VL with A25E, R37Y
B41: H183/L072 VL H34Q (antibody, name in Kabat numbering, V domains shown)
VH: B1 VH
VL: B1 VL with R37Y, H39Q
B42: H183/L072 VL A25K (antibody, name in Kabat numbering, V domains shown)
VH: B1 VH
VL: B1 VL with A25K, R37Y
B43: H183/L072 VL R54N (antibody, name in Kabat numbering, V domains shown)
VH: B1 VH
VL: B1 VL with R37Y, R59N

Residue numbers refer to the chain shown, from its start. Names and notes keep the numbering of the source.

Data on 43 molecules can be found in patent US20210388087A1.

The first assay deals with Human CD3eg linker (human). Description: SPR; fold vs parent H183/L072.
Human CD3eg linker (human), sequence (chain, as listed by the source limits assumed): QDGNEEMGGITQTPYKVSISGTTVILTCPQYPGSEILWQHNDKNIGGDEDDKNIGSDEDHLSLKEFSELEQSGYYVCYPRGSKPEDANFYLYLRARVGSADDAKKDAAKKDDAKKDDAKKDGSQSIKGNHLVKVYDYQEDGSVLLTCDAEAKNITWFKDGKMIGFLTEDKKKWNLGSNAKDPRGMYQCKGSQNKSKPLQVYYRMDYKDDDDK
In the case of B1, the fold change of affinity amounted to 0 fold.
Take B2: the fold change of affinity was 0 fold.
Still for that read-out and setting: for B3 the value was 0 fold; for B4, 0 fold; for B5, 0 fold.
Consider B6, for which the fold change of affinity stood at 0 fold.
Same read-out and setting: as for B7, the figure is 0 fold; as for B8, 0 fold; as for B9, 0 fold.
On the same count and under the same terms, as for B10, the figure is 0 fold; as for B11, 0 fold.
On the same count and under the same terms, as for B12, the figure is 0 fold; as for B13, 0 fold.

For a further assay, the target named is Human CD137 ECD (human). Put plainly: Biacore SPR, vs parent H183/L072.
Human CD137 ECD (human), sequence (chain, as listed by the source limits assumed): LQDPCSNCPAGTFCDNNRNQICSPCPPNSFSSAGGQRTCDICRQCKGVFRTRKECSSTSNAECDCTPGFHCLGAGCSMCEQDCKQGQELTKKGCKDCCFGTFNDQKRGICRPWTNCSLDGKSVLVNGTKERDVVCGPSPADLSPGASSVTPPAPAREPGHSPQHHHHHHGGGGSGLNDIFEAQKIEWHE
In the case of B14, the fold change of affinity came out at 0 fold.
The same measure, in the same setting: for B15 the value was 0 fold.
Still for that read-out and setting: as for B16, the figure is 0 fold; as for B17, 0 fold.
Still for that read-out and setting: for B18 the value was 0 fold.
Regarding B19, the fold change of affinity was 0 fold.
Still for that read-out and setting: as for B1, the figure is 0 fold; as for B20, 0 fold.
Still for that read-out and setting: as for B21, the figure is 0 fold; as for B22, 0 fold.
Still for that read-out and setting: as for B3, the figure is 0 fold.
In the case of B23, the fold change of affinity was determined as 0 fold.
Consider B24, for which the fold change of affinity was determined as 0 fold.
On the same count and under the same terms, for B25 the value was 0 fold; for B26, 0 fold.
B27: the fold change of affinity is 0 fold.
Still for that read-out and setting: for B4 the value was 0 fold.
Take B28: the fold change of affinity amounted to 0 fold.
On the same count and under the same terms, for B29 the value was 0 fold.
The same measure, in the same setting: for B30 the value was 0 fold; for B31, 0 fold; for B32, 0 fold.
The same measure, in the same setting: for B33 the value was 0 fold.
For B34, the fold change of affinity amounted to 0 fold.
For B35, the fold change of affinity was determined as 0 fold.
Same read-out and setting: for B36 the value was 0 fold; for B37, 0 fold.
Still for that read-out and setting: as for B38, the figure is 0 fold; as for B39, 0 fold; as for B10, 0 fold.
The same measure, in the same setting: for B11 the value was 0 fold.
On to B40, for which the fold change of affinity worked out at 0 fold.
Still for that read-out and setting: as for B41, the figure is 0 fold; as for B42, 0 fold; as for B43, 0.06 fold.
